A word on the koff: it is the rate constant with which the complex falls apart. What is called Kd is a measure of binding affinity in units of concentration. One may read the kon as the second-order rate constant of association. The EC50 is the concentration that produces a half-maximal response. For orientation: IC50 means the midpoint of a concentration-inhibition curve.

This is an account of results in patent publication US20240026037A1 (Memorial Sloan Kettering, published 2024).

In test [1] the target is T1, Human GPA33 (recombinant protein, Novoprotein) (human, UniProt Q99795 22-235).
T1 construct: Bought recombinant protein immobilized on a CM5 chip; also called GPA33 antigen; tumor antigen GPA33
T1 sequence: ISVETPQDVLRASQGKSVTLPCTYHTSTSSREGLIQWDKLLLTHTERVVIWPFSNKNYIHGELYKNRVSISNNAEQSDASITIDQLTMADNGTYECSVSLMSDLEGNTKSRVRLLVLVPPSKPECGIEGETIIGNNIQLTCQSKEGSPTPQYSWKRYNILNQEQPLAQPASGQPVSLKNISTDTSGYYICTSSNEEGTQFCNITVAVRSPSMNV
The test can be described thus: SPR (Biacore), human GPA33 immobilised on the chip; KD relative to that of BC015. The essentials: (§1)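 Recombinant human GPA33 (Novoprotein) was immobilised on a CM5 sensor chip, and antibodies were injected at five concentrations in 2-fold serial dilutions from 20 nM. Affinity (KD) was determined by surface plasmon resonance on a Biacore system, with kinetic fitting of the sensorgrams giving rate constants and KD. Every KD is reported as a ratio to the KD of a reference molecule.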
(Surface plasmon resonance follows binding to a sensor surface in real time, without labels.)

For test [2], the target named is T1, Human GPA33 (recombinant protein, …). Briefly: SPR (Biacore) on immobilized GPA33, 25 C per legend paragraph 44; column kd1 of the two-state fit. Here is the method:
(§2) SPR analysis. Human GPA33 (Novoprotein, Summit, NJ) was immobilized on CM5 chips. Five concentrations of 2-fold serially diluted huA33 IgG1 or huA33-BsAbs (starting at 20 nM) were flowed over the chip using a Biacore™ T100 system (GE Healthcare, Chicago, IL). Binding kinetics of huA33 were measured at 25° C. and binding kinetics of huA33-BsAbs were measured at both 25° C. and 37° C. The sensorgrams were fitted with two state binding model for both to derive kinetic parameters.

For test [3] the target is unchanged. Briefly: SPR (Biacore), human GPA33 immobilised on the chip; two-state fit (ka1, kd1, ka2, kd2); temperature not given on the sheet. Here is the method:
as §2

The target is the same in test [4]. The test can be described thus: SPR (Biacore) on immobilized GPA33, 25 C per legend paragraph 44; column ka1 of the two-state fit. The procedure: as §2
Test [5] deals with T2, Human GPA33 on GPA33+ colorectal cancer cell lines (Colo 205, LS 174T, SW 1222) (human, UniProt Q99795 22-319).
T2 construct: Endogenous GPA33 on human colorectal cancer cell lines; also called surface human GPA33; GPA33+ tumor cell lines
T2 sequence: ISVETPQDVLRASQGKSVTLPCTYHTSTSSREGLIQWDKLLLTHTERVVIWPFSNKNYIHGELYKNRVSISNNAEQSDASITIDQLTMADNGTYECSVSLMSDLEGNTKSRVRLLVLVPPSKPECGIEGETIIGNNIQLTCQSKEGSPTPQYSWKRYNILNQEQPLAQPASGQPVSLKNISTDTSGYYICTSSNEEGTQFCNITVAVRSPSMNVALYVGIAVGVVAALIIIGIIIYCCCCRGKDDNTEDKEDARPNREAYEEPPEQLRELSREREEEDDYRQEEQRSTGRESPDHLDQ
The test can be described thus: FACS titration on LS174T cells, geometric mean MFI [Cont.].

The target of test [6] is T2, Human GPA33 on GPA33+ colorectal cancer …. The test can be described thus: FACS titration on SW1222 cells, geometric mean MFI [Cont.].
Test [7] has the same target. Briefly: FACS titration on Colo205 cells, geometric mean MFI.
Test [8] concerns the target T1, Human GPA33 (recombinant protein, …). Briefly: SPR (Biacore) on immobilized GPA33, 25 C per legend paragraph 44; two-state fit. The procedure: as §2
Test [9] addresses T2, Human GPA33 on GPA33+ colorectal cancer …. The test can be described thus: flow cytometry, LS 174T cells. In general terms: A flow cytometer gives signals particle by particle.
For test [10] the target is unchanged. Briefly: FACS binding to SW1222 cells (GPA33+); reference row.
Test [11] concerns the target T1, Human GPA33 (recombinant protein, …). The test can be described thus: SPR (Biacore), human GPA33 immobilized on CM5 chip, two-state fit. The essentials: (§3)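 GPA33 immobilized on CM5 chip; five 2-fold dilutions of huA33 IgG1 or huA33 bispecifics from 20 nM injected. Kinetics measured at 25 °C for huA33, at both 25 °C and 37 °C for bispecifics; sensorgrams fitted to a two-state binding model.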

The target is the same in test [12]. Briefly: SPR (Biacore), human GPA33 immobilized on CM5 chip, two-state fit, ka1. The essentials: as §3
Test [13] has as its target T2, Human GPA33 on GPA33+ colorectal cancer …. Briefly: flow cytometry, SW 1222 cells.
The target is the same in test [14]. The test can be described thus: FACS binding to LS174T cells (GPA33+); reference row.
Test [15] has the same target. The test can be described thus: FACS binding to Colo205 cells (GPA33+); reference row.
For test [16] the target is unchanged. Briefly: FACS titration on Colo205 cells, geometric mean MFI (the text prints 0.74 nM and calls it IC50).
The target of test [17] is T1, Human GPA33 (recombinant protein, …). The test can be described thus: SPR (Biacore), human GPA33 immobilised on the chip; reference row. Summed up:
as §1

The target of test [18] is T2, Human GPA33 on GPA33+ colorectal cancer …. Briefly: FACS titration on Colo205 cells, geometric mean MFI (same value as in FIG. 4A; the text prints 0.74 nM).
In test [19] the target is T1, Human GPA33 (recombinant protein, …). The test can be described thus: SPR (Biacore), human GPA33 immobilized on CM5 chip, two-state fit, kd1. The essentials:
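The off-rate (kd1) was determined by surface plasmon resonance against immobilised recombinant human GPA33, using a two-state binding model fit. Antibodies were tested on a CM5 chip in a Biacore T100 at five concentrations, from 20 nM in 2-fold serial dilutions. The parent IgG1 was measured at 25° C, and the bispecific formats at 25° C and 37° C.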

The target in test [20] is T2, Human GPA33 on GPA33+ colorectal cancer …. The test can be described thus: flow cytometry, Colo 205 cells; Colo 205 cells.
Test [21] has the same target. The test can be described thus: cell binding to LS174T Luc cells; IgG format.
The target of test [22] is T1, Human GPA33 (recombinant protein, …). The test can be described thus: SPR (Biacore), human GPA33 immobilized on CM5 chip, IgG format. The procedure:
as §2

Test [23] deals with T2, Human GPA33 on GPA33+ colorectal cancer …. The test can be described thus: cell binding to SW1222 Luc cells; IgG format.

B1: BC016 (G3A H3L3) (bispecific antibody, human IgG1, kappa, N297A)
heavy: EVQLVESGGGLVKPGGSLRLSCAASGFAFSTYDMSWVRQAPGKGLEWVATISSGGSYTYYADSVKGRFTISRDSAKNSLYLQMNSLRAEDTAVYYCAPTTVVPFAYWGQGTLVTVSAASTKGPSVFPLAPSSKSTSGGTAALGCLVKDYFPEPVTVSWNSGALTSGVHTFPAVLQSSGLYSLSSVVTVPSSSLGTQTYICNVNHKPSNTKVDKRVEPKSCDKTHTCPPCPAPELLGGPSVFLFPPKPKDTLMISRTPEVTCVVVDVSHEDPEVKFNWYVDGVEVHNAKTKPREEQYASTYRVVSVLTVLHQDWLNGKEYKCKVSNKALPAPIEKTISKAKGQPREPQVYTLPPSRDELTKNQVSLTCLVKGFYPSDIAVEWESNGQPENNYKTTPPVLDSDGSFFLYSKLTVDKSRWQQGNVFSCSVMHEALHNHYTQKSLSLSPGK
light: DIQMTQSPSSLSTSVGDRVTITCKASQNVRTVVAWYQQKPGKAPKTLIYLASNRHSGVPSRFSGSGSGTEFTLTISNLQPEDFATYYCLQHWSYPLTFGSGTKLEVKRTVAAPSVFIFPPSDEQLKSGTASVVCLLNNFYPREAKVQWKVDNALQSGNSQESVTEQDSKDSTYSLSSTLTLSKADYEKHKVYACEVTHQGLSSPVTKSFNRGECTSGGGGSGGGGSGGGGSHVQLVESGGGLVQPGGSLRLSCAASGFSLTDYGVHWVRQAPGKGLEWLGVIWSGGGTAYNTALISRFTISRDNSKNTLYLQMNSLRAEDTAVYYCARRGSYPYNYFDAWGCGTLVTVSSGGGGSGGGGSGGGGSGGGGSGGGGSGGGGSQAVVTQEPSLTVSPGGTVTLTCGSSTGAVTASNYANWVQQKPGQCPRGLIGGHNNRPPGVPARFSGSLLGGKAALTLLGAQPEDEAEYYCALWYSDHWVIGGGTKLTVLG
notes: GPA33xDOTA IgG-[L]-scFv; The anti-DOTA scFv is fused to the C-terminus of the light chain
Take B1: the “Fold change of KD (relative to BC015, lower is better)” value in test [1] stood at 0.07. Further, the off-rate (koff) in test [2] worked out at 0.000511 s⁻¹. The Kd in test [3] and in [8] was 7.92 pM throughout. Also, the kon in test [4] is 5.5e+06 M⁻¹ s⁻¹. In addition, the EC50 in [5] was 650 pM; in [6], 350 pM; in [7], 740 pM.

B2: TC170 (bispecific antibody)
chain: EVQLVESGGGLVKPGGSLRLSCAASGFAFSTYDMSWVRQAPGKGLEWVSTISSGGSYTYYADSVKGRFTISRDNAKNSLYLQMNSLRAEDTAVYYCAPTTVVPFAYWGQGTLVTVSAGGGGSGGGGSGGGGSGGGGSGGGGSGGGGSDIQMTQSPSSLSASVGDRVTITCKASQNVRTVVAWYQQKPGKAPKTLIYLASNRHTGVPSRFSGSGSGTEFTLTISNLQPEDFATYYCLQHWSYPLTFGSGTKLEVKRGGGGSGGGGSGGGGSGGGGSHVQLVESGGGLVQPGGSLRLSCAASGFSLTDYGVHWVRQAPGKGLEWLGVIWSGGGTAYNTALISRFTISRDNSKNTLYLQMNSLRAEDTAVYYCARRGSYPYNYFDAWGCGTLVTVSSGGGGSGGGGSGGGGSGGGGSGGGGSGGGGSQAVVTQEPSLTVSPGGTVTLTCGSSTGAVTASNYANWVQQKPGQCPRGLIGGHNNRPPGVPARFSGSLLGGKAALTLLGAQPEDEAEYYCALWYSDHWVIGGGTKLTVLGTPLGDTTHTSGKPLDGEYFTLQIRGRERFEMFRELNEALELKDAQAGKEPGGSGGAPHHHHHH
notes: Single chain: anti-GPA33 scFv, anti-DOTA (C825) scFv, p53 SADA domain; The copy number 4 comes from the p53 tetramerization domain; the self-assembling and disassembling state depends on concentration; also called GPA33 SADA (TC170); GPA33xDOTA SADA
As to B2, the results for the IC50 in test [9] and in test [13] were 310 pM and 1650 pM, respectively. In addition, the “fold change of binding EC50 (relative to TC170, lower is better)” value in test [10], in test [14] and in test [15] was 1 throughout. In addition, in test [11], the Kd is 15.8 pM. Moreover, the ka2 in test [11] worked out at 0.00646 s⁻¹. In test [11], the kd2 worked out at 0.000538 s⁻¹. The kon in test [12] is 3.54e+06 M⁻¹ s⁻¹. Further, the EC50 is 730 pM in test [16], 730 pM in [18] and 740 pM in [20]. The “Fold change of KD (relative to TC170, lower is better)” value in [17] was 1. In addition, in [19], the koff was 0.000728 s⁻¹.

B3: Humanized A33 antibody with variable heavy chain VH1 and variable light chain VK4 (antibody, IgG1, V domains shown)
VH: EVQLVESGGGLVKPGGSLRLSCAASGFAFSTYDMSWVRQAPGKGLEWVSTISSGGSYTYYADSVKGRFTISRDNAKNSLYLQMNSLRAEDTAVYYCAPTTVVPFAYWGQGTLVTVSA
VL: DIQMTQSPSSLSASVGDRVTITCKASQNVRTVVAWYQQKPGKAPKTLIYLASNRHTGVPSRFSGSGSGTEFTLTISNLQPEDFATYYCLQHWSYPLTFGSGTKLEVK
notes: Mouse A33 was humanized as IgG1 and tested in IgG format; also called VH1/VK4; huA33 IgG1
In the case of B3, the EC50 in [21] worked out at 0.503 µg/mL; in test [23] it was 0.466 µg/mL. In addition, in test [22], the equilibrium dissociation constant (Kd) was 168 pM.
